In patent US20230265179A1 (TWIST BIOSCIENCE, published 2023):

T1: CD40L (UniProt P29965 1-261, limits assumed)
T1 construct: whole, on cells; also called cytokine over-expressing Expi293 cells (CD40L)
T1 sequence (looked up): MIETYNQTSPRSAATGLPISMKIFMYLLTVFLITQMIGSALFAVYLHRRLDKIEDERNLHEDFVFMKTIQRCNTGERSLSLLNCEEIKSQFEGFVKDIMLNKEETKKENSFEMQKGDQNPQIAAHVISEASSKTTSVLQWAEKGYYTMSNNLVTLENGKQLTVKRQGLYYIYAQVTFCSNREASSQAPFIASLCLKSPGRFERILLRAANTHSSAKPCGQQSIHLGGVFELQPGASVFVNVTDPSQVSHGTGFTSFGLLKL


Target: T1, CD40L
Assay: flow cytometry, 100 nM IgG, CD40L over-expressing Expi293 cells over parent Expi293 cells
Procedure: All incubations and washes were in buffer containing PBS+1% BSA. MFI Ratio is defined by the mean fluorescence intensity (MFI) of the cytokine over-expressing Expi293 cell over the Expi293 parent cell. […] EC50 was calculated in GraphPad Prism.

Row | 100 nM FACS (MFI Ratio) [MFI ratio] | Binder
1 | 7.6 | CD40L-355 (antibody, V domains shown) VH: EVQLLESGGGLVQPGGSLRLSCAASGFIFSNYDMSWVRQAPGKGLEWVSGISGSGGSTSYADSVKGRFTISRDNSKNTLYLQMNSLRAEDTAVYYCARHGGYNPYGLDYWGQGTLVTVSS VL: DIQMTQSPFSLSASVGDRVTITCRASQNILTYLNWYQQKPGKAPKLLIYGASTLRSGVPSRFSGSGSGTDFTLTISSLQPEDFATYYCQQSYRLPLTFGGGTKVEIK
2 | 4.2 | CD40L-358 (antibody, V domains shown) VH: EVQLLESGGGLVQPGGSLRLSCAASGFTFSTYAMNWVRQAPGKGLEWVSAISGSGGTTYYADSVKGRFTISRDNSKNTLYLQMNSLRAEDTAVYYCARGPNNWNYVSFDYWGQGTLVTVSS VL: DIQMTQSPSSLSASVGDRVTITCRASQYIGTYLNWYQQKPGKAPKLLIYAAANLQSGVPSRFSGSGSGTDFTLTISSLQPEDFATYYCQQSYSIPLTFGGGTKVEIK
3 | 5.1 | CD40L-359 (antibody, V domains shown) VH: EVQLLESGGGLVQPGGSLRLSCAASGYTFSSYAMSWVRQAPGKGLEWVSGISGGGTSTYYADSVKGRFTISRDNSKNTLYLQMNSLRAEDTAVYYCARFGNHYDRTGYSDYWGQGTLVTVSS VL: DIQMTQSPSSLSASVGDRVTITCRASQNIGGYLNWYQQKPGKAPKLLIYGASRLQSGVPSRFSGSGSGTDFTLTISSLQPEDFATYYCQQSYSTPFTFGGGTKVEIK
4 | 1060 | CD40L-362 (antibody, V domains shown) VH: EVQLLESGGGLVQPGGSLRLSCAASGFTFTSYAMSWVRQAPGKGLEWVSGISGSGINTYYADSVKGRFTISRDNSRNTLYLQMNSLRAEDTAVYYCVRSSWSDVWGQGTLVTVSS VL: DIQMTQSPSSLSASVGDRVTITCRASQNIINYLNWYQQKPGKAPKLLIYGASTLESGVPSRFSGSGSGTDFTLTISSLQPEDFATYYCQQSYSVPLTFGGGTKVEIK
5 | 4.6 | CD40L-365 (antibody, V domains shown) VH: EVQLLESGGGLVQPGGSLRLSCAASGFTFSYYAMTWVRQAPGKGLEWVSGISGSGGSSYYADSVKGRFTISRDNSKNTLYLQMNSLRAEDTAVYYCARSHDYDRQTFDYWGQGTLVTVSS VL: DIQMTQSPSSLSASVGDRVTITCRASQSIATYLHWYQQKPGKAPKLLIYSASTLESGVPSRFSGSGSGTDFTLTISSLQPEDFATYYCQQSYRPPLTFGGGTKVEIK
6 | 6.8 | CD40L-364 (antibody, V domains shown) VH: EVQLLESGGGLVQPGGSLRLSCAASGFTFSPYAMSWVRQAPGKGLEWVSSITGTGGSTYYADSVKGRFTISRDNSKNTLYLQMNSLRAEDTAVYYCARSWASEDFDWLPNFDFWGQGTLVTVSS VL: DIQMTQSPSSLSASVGDRVTITCRVSQSISSYLHWYQQKPGKAPKLLIYAASSLQTGVPSRFSGSGSGTDFTLTISSLQPEDFATYYCQQSYTLPLTFGGGTKVEIK
7 | 8.1 | CD40L-378 (antibody, V domains shown) VH: EVQLLESGGGLVQPGGSLRLSCAASGFTFRSYAMTWVRQAPGKGLEWVSAISGSGDRTYYGDSVKGRFTISRDNSKNTLYLQMNSLRAEDTAVYYCARIARSEDFWSGYYTDFDFDYWGQGTLVTVSS VL: DIQMTQSPSSLSASVGDRVTITCRASQSISTYLNWYQQKPGKAPKLLIYRASTLQSGVPSRFSGSGSGTDFTLTISSLQPEDFATYYCQQSYSNPPTFGGGTKVEIK
8 | 1.6 | CD40L-386 (antibody, V domains shown) VH: not shown VL: DIQMTQSPSSLSASVGDRVTITCRASESITTYLNWYQQKPGKAPKLLIYTASGLQSGVPSRFSGSGSGTDFTLTISSLQPEDFATYYCQQSYTVPITFGGGTKVEIK
9 | 5 | CD40L-429 (antibody, V domains shown) VH: not shown VL: DIQMTQSPSSLSASVGDRVTITCRASQTISYYLNWYQQKPGKAPKLLIYDATSLQSGVPSRFSGSGSGTDFTLTISSLQPEDFATYYCQQTYSLPLTFGGGTKVEIK
10 | 6.9 | CD40L-354 (antibody, V domains shown) VH: EVQLLESGGGLVQPGGSLRLSCAASGFSFSSYAMAWVRQAPGKGLEWVSSISGSGGGGNTYYADSVKGRFTISRDNSKNTLYLQMNSLRAEDTAVYYCARHHERDYYGMDVWGQGTLVTVSS VL: DIQMTQSPSSLSASVGDRVTITCRASQSIGEYLNWYQQKPGKAPKLLIYSASSLQNGVPSRFSGSGSGTDFTLTISSLQPEDFATYYCQQTYSFPLTFGGGTKVEIK
11 | 6.2 | CD40L-396 (antibody, V domains shown) VH: EVQLLESGGGLVQPGGSLRLSCAASGFSFSSYAMAWVRQAPGKGLEWVSSISGSGGGGNTYYADSVKGRFTISRDNSKNTLYLQMNSLRAEDTAVYYCARHHERDYYGMDVWGQGTLVTVSS VL: DIQMTQSPSSLSASVGDRVTITCRASQRISRYLNWYQQKPGKAPKLLIYRASTLQSGVPSRFSGSGSGTDFTLTISSLQPEDFATYYCQQSHSSPLTFGGGTKVEIK
12 | 3.6 | CD40L-418 (antibody, V domains shown) VH: EVQLLESGGGLVQPGGSLRLSCAASGFTFGRYAMSWVRQAPGKGLEWVSDISGSGGSTYYADSVKGRFTISRDNSKNTLYLQMNSLRAEDTAVYYCARDGFRWGRAEYFQHWGQGTLVTVSS VL: DIQMTQSPSSLSASVGDRVTITCRASESITTYLNWYQQKPGKAPKLLIYTASGLQSGVPSRFSGSGSGTDFTLTISSLQPEDFATYYCQQSYTVPITFGGGTKVEIK
13 | 3 | CD40L-363 (antibody, V domains shown) VH: EVQLLESGGGLVQPGGSLRLSCAASGFTFSDYDMSWVRQAPGKGLEWVSGISGSGATTYYADSVKGRFTISRDNSKNTLYLQMNSLRAEDTAVYYCARDSSGSYYYPLDYWGQGTLVTVSS VL: DIQMTQSPSSLSASVGDRVTITCRTSQSISSYANWYQQKPGKAPKLLIYGASRLESGVPSRFSGSGSGTDFTLTISSLQPEDFATYYCQQTYSTPWTFGGGTKVGIK

Second part, the binder before the results:

Row | Binder | 100 nM FACS (MFI Ratio) [MFI ratio]
14 | CD40L-350 (antibody, V domains shown) VH: EVQLLESGGGLVQPGGSLRLSCAASGLTFGSYAMSWVRQAPGKGLEWVSAISGSVGSTYYADSVKGRFTISRDNSKNTLYLQMNSLRAEDTAVYYCARHGGYYYYYMDVWGQGTLVTVSS VL: DIQMTQSPSSLSASVGDRVTITCRASQSISSYVSWYQQKPGKAPKLLIYDASSLSGGVPSRFSGSGSGTDFTLTISSLQPEDFATYYCQQSYRIPLTFGGGTKVEIK | 66.4
15 | CD40L-340 (antibody, V domains shown) VH: EVQLLESGGGLVQPGGSLRLSCAASGFGFSSYAMSWVRQAPGKGLEWVSAISGGGGSIYYADSVKGRFTISRDNSKNTLYLQMNSLRAEDTAVYYCATDYGDYDRLNFDLWGQGTLVTVSS VL: DIQMTQSPSSLSASVGDRVTITCRASQSVSRFLNWYQQKPGKAPKLLIYAASTLQPGVPSRFSGSGSGTDFTLTISSLQPEDFATYYCQQSYETPLTFGQGTKVEIK | 61.5
16 | CD40L-341 (antibody, V domains shown) VH: EVQLLESGGGLVQPGGSLRLSCAASGFTFRSYAMTWVRQAPGKGLEWVSAISGSGDRTYYGDSVKGRFTISRDNSKNTLYLQMNSLRAEDTAVYYCARIARSEDFWSGYYTDFDFDYWGQGTLVTVSS VL: DIQMTQSPSSLSASVGDRVTITCRASQSISTYLNWYQQKPGKAPKLLIYRASTLQSGVPSRFSGSGSGTDFTLTISSLQPEDFATYYCQQSYSNPPTFGQGTKVEIK | 125
17 | CD40L-348 (antibody, V domains shown) VH: not shown VL: DIQMTQSPSSLSASVGDRVTITCRASQTISNFLNWYQQKPGKAPKLLIYAASTLQYGVPSRFSGSGSGTDFTLTISSLQPEDFATYYCQQNYRSPLTFGGGTKVEIK | 6.2
18 | CD40L-347 (antibody, V domains shown) VH: EVQLLESGGGLVQPGGSLRLSCAASGFTFSNYAMSWVRQAPGKGLEWVSAITGSGSTTYYADSVKGRFTISRDNSKNTLYLQMNSLRAEDTAVYYCARAHDYDSMLMDYWGQGTLVTVSS VL: DIQMTQSPSSLSASVGDRVTITCRASQSIGTFLNWYQQKPGKAPKLLIYGTSNLQSGVPSRFSGSGSGTDFTLTISSLQPEDFATYYCQQGYRTPLTFGGGTKVEIK | 11.6
19 | CD40L-360 (antibody, V domains shown) VH: EVQLLESGGGLVQPGGSLRLSCAASGFTFGRYAMSWVRQAPGKGLEWVSDISGSGGSTYYADSVKGRFTISRDNSKNTLYLQMNSLRAEDTAVYYCARDGFRWGRAEYFQHWGQGTLVTVSS VL: DIQMTQSPSSLSASVGDRVTITCRASQTISSYLSWYQQKPGKAPKLLIYDASTLQSGVPSRFSGSGSGTDFTLTISSLQPEDFATYYCQQSYRIPLTFGGGTKVEIK | 15.4
20 | CD40L-437 (antibody, V domains shown) VH: EVQLLESGGGLVQPGGSLRLSCAASGFSFSSYAMAWVRQAPGKGLEWVSSISGSGGGGNTYYADSVKGRFTISRDNSKNTLYLQMNSLRAEDTAVYYCARHHERDYYGMDVWGQGTLVTVSS VL: DIQMTQSPSSLSASVGDRVTITCRASQTISNFLNWYQQKPGKAPKLLIYAASTLQYGVPSRFSGSGSGTDFTLTISSLQPEDFATYYCQQTYSFPLTFGGGTKVEIK | 4.3
21 | CD40L-349 (antibody, V domains shown) VH: EVQLLESGGGLVQPGGSLRLSCAASGFGFSSYAMSWVRQAPGKGLEWVSAISGGGGSIYYADSVKGRFTISRDNSKNTLYLQMNSLRAEDTAVYYCATDYGDYDRLNFDLWGQGTLVTVSS VL: DIQMTQSPSSLSASVGDRVTITCRASQTIGSYLNWYQQKPGKAPKLLIYAASTLQPGVPSRFSGSGSGTDFTLTISSLQPEDFATYYCQQSYETPLTFGGGTKVEIK | 5.8
22 | CD40L-345 (antibody, V domains shown) VH: not shown VL: DIQMTQSPSSLSASVGDRVTITCRASQTISNFLNWYQQKPGKAPKLLIYAASTLQYGVPSRFSGSGSGTDFTLTISSLQPEDFATYYCQQNYRSPLTFGQGTKVEIK | 7.7
